Source: US20110301327A1 (MANNKIND, published 2011)
Read-outs that look alike come from different tables or passages of the source. Each block holds one binder with its values, some of them ahead of it. Where no end group is shown, it is not given here. [ ]: non-standard residue; d: D form. Orn = NCCC[C@H](N)C(=O)O; Nva = CCC[C@H](N)C(=O)O

Experiments:
[1] = target: T1, HLA-A*0201 class I monomer (ITOPIA Epitope Discovery System plates); assay: iTopia binding assay
T1 construct: Bought kit; for the PSMA series only HLA-A2 is implied; also called MHC monomer; HLA-A2

[2] = target: T2, HLA-A*0201 (human); assay: T2 cell binding, flow cytometry; half-maximal binding
T2 construct: Empty class I on TAP-deficient T2 cells, stabilised by the added peptide; also called HLA-A2; MHC class I (A2 allele) on T2 cells

[3] = target: T2, HLA-A*0201; assay: T2 cell binding, flow cytometry
[4] = target: T2, HLA-A*0201; assay: T2 cell binding, flow cytometry; remark: listed apart in the source
[5] = target: T1, HLA-A*0201 class I monomer (ITOPIA …); assay: iTopia affinity assay
[6] = target: T1, HLA-A*0201 class I monomer (ITOPIA …); assay: iTopia affinity assay (ED50)

binding result [1]: binds
Binder: [Orn]LLQHLIGL [PRAME425-433 analog, Orn at P1]

EC50 [2]: 17.8 µM
Binder: FVSEKIFYM [SSX2 41-49 (K41F, A42V, V49M)]

EC50 [2]: 13.9 µM
Binder: KVSEKIFYI [SSX2 41-49(A42V, V49I)]

EC50 [2]: 14 µM
Binder: KASEKIFYI [SSX2 41-49(V49I)]

EC50 [2]: 5.68 µM
Binder: KLSEKIFYI [SSX2 41-49(A42L, V49I)]

binding result [3]: binds
Binder: KLSEKIFYVX (Nva, norvaline, at position 10 (50)) [SSX-2 41-50(A42L, Y50(Nva))]

binding result [3]: binds
Binder: KLSEKIFYVX (Nle, norleucine, at position 10 (50)) [SSX-2 41-50(A42L, Y50(Nle))]

binding result [1]: binds
Binder: XLLQHLIGL (Hse (homoserine) at P1) [PRAME425-433 analog, Hse at P1]

binding result [4]: no binding
Binder: KASEKIFYX (C-terminal amide) [SSX2 41-49-NH2]

binding result [3]: binds
Binder: KLSEKIFYVL [SSX-2 41-50(A42L, Y50L)]

binding result [3]: binds
Binder: KLSEKIFYVV [SSX-2 41-50(A42L, Y50V)]

binding result [5]: binds
Binder: SLLQHLIGA [PRAME425-433 analog, Ala at PO]

binding result [1]: binds
Binder: KLLQHLIGL (also called Lys P1 analog) [PRAME425-433 analog, Lys at P1]

fold reduction of affinity against the native peptide [6]: ~3 fold
Binder: S[Nva]LQHLIGL [PRAME425-433 analog, Nva at P2]

binding result [3]: binds
Binder: FLLMWITQC (also called Substitution of S157 with F) [NY-ESO-1 157-165 S157F]

binding result [3]: binds
Binder: KLLMWITQC (also called Substitution of S157 with K) [NY-ESO-1 157-165 S157K]
